The source of these data is article PMC10524254.

Read-outs that look alike come from different tables or passages of the source.

As for CD79B: N101Q, the localisation_or_trafficking result (N-glycosylation at N101) is reported as “no change”.

Turning to CD79A: N112Q, the localisation_or_trafficking result (N-glycosylation at N112) is reported as “no change”.

On to IgM: N209Q, for which the localisation_or_trafficking entry (N-glycosylation at N209) was “no change”.

Take CD79B: N73Q: the localisation_or_trafficking result (N-glycosylation at N73) is given as “no change”.
